According to US20140308307A1 (University of Texas, published 2014):

Target: the molecule itself
Assay: X-ray crystal structure of the complex

B1: P94S mutant F2F3 fragment of human CPSF30 (variant used in the X-ray crystal structure determination) (other)
chain: SGEKTVVCKHWLRGLCKKGDQCEFLHEYDMTKMSECYFYSKFGECSNKECPFLHIDPESKI
notes: also called F2F3 with Ser in place of Pro at position 94; F2F3-A; not shown: N-terminal hexaHis tag
binding result: binds
